# Patent publication US20260139055A1
# Biological target: canine FcRn complex (FcRn-alpha subunit and beta-microglobulin), His-tagged, biotin labeled (canine)
# Assay: SPR (Biacore), biotin-FcRn captured on SA surface, IgG flowed over, pH 6, 15 C
row,Kd [nM],Binder
1,9.11,"canine IgGB (65) mAb with mutation A426V (antibody, part only; not given: Variable domains, not shown: another chain or arm of the molecule) constant: ASTTAPSVFPLAPSCGSTSGSTVALACLVSGYFPEPVTVSWNSGSLTSGVHTFPSVLQSSGLYSLSSMVTVPSSRWPSETFTCNVAHPASKTKVDKPVPKRENGRVPRPPDCPKCPAPEMLGGPSVFIFPPKPKDTLLIARTPEVTCVVVDLDPEDPEVQISWFVDGKQMQTAKTQPREEQFNGTYRVVSVLPIGHQDWLKGKQFTCKVNNKALPSPIERTISKARGQAHQPSVYVLPPSREELSKNTVSLTCLIKDFFPPDIDVEWQSNGQQEPESKYRTTPPQLDEDGSYFLYSKLSVDKSRWQRGDTFICVVMHEALHNHYTQESLSHSPGK"
2,4.74,"canine IgGB (65) mAb with mutation Y436Q (antibody, part only; not given: Variable domains, not shown: another chain or arm of the molecule) constant: ASTTAPSVFPLAPSCGSTSGSTVALACLVSGYFPEPVTVSWNSGSLTSGVHTFPSVLQSSGLYSLSSMVTVPSSRWPSETFTCNVAHPASKTKVDKPVPKRENGRVPRPPDCPKCPAPEMLGGPSVFIFPPKPKDTLLIARTPEVTCVVVDLDPEDPEVQISWFVDGKQMQTAKTQPREEQFNGTYRVVSVLPIGHQDWLKGKQFTCKVNNKALPSPIERTISKARGQAHQPSVYVLPPSREELSKNTVSLTCLIKDFFPPDIDVEWQSNGQQEPESKYRTTPPQLDEDGSYFLYSKLSVDKSRWQRGDTFICAVMHEALHNHQTQESLSHSPGK"
3,9.67,"canine IgGB (65) mAb with mutation Y436G (antibody, part only; not given: Variable domains, not shown: another chain or arm of the molecule) constant: ASTTAPSVFPLAPSCGSTSGSTVALACLVSGYFPEPVTVSWNSGSLTSGVHTFPSVLQSSGLYSLSSMVTVPSSRWPSETFTCNVAHPASKTKVDKPVPKRENGRVPRPPDCPKCPAPEMLGGPSVFIFPPKPKDTLLIARTPEVTCVVVDLDPEDPEVQISWFVDGKQMQTAKTQPREEQFNGTYRVVSVLPIGHQDWLKGKQFTCKVNNKALPSPIERTISKARGQAHQPSVYVLPPSREELSKNTVSLTCLIKDFFPPDIDVEWQSNGQQEPESKYRTTPPQLDEDGSYFLYSKLSVDKSRWQRGDTFICAVMHEALHNHGTQESLSHSPGK"
4,9.51,"canine IgGB (65) mAb with mutation Y436M (antibody, part only; not given: Variable domains, not shown: another chain or arm of the molecule) constant: ASTTAPSVFPLAPSCGSTSGSTVALACLVSGYFPEPVTVSWNSGSLTSGVHTFPSVLQSSGLYSLSSMVTVPSSRWPSETFTCNVAHPASKTKVDKPVPKRENGRVPRPPDCPKCPAPEMLGGPSVFIFPPKPKDTLLIARTPEVTCVVVDLDPEDPEVQISWFVDGKQMQTAKTQPREEQFNGTYRVVSVLPIGHQDWLKGKQFTCKVNNKALPSPIERTISKARGQAHQPSVYVLPPSREELSKNTVSLTCLIKDFFPPDIDVEWQSNGQQEPESKYRTTPPQLDEDGSYFLYSKLSVDKSRWQRGDTFICAVMHEALHNHMTQESLSHSPGK"
5,7.27,"canine IgGB (65) mAb with mutation Y436N (antibody, part only; not given: variable domains of unnamed mAb, not shown: another chain or arm of the molecule) constant: ASTTAPSVFPLAPSCGSTSGSTVALACLVSGYFPEPVTVSWNSGSLTSGVHTFPSVLQSSGLYSLSSMVTVPSSRWPSETFTCNVAHPASKTKVDKPVPKRENGRVPRPPDCPKCPAPEMLGGPSVFIFPPKPKDTLLIARTPEVTCVVVDLDPEDPEVQISWFVDGKQMQTAKTQPREEQFNGTYRVVSVLPIGHQDWLKGKQFTCKVNNKALPSPIERTISKARGQAHQPSVYVLPPSREELSKNTVSLTCLIKDFFPPDIDVEWQSNGQQEPESKYRTTPPQLDEDGSYFLYSKLSVDKSRWQRGDTFICAVMHEALHNHNTQESLSHSPGK"
6,6.88,"canine IgGB (65) mAb with mutation Y436K (antibody, part only; not given: variable domains of unnamed mAb, not shown: another chain or arm of the molecule) constant: ASTTAPSVFPLAPSCGSTSGSTVALACLVSGYFPEPVTVSWNSGSLTSGVHTFPSVLQSSGLYSLSSMVTVPSSRWPSETFTCNVAHPASKTKVDKPVPKRENGRVPRPPDCPKCPAPEMLGGPSVFIFPPKPKDTLLIARTPEVTCVVVDLDPEDPEVQISWFVDGKQMQTAKTQPREEQFNGTYRVVSVLPIGHQDWLKGKQFTCKVNNKALPSPIERTISKARGQAHQPSVYVLPPSREELSKNTVSLTCLIKDFFPPDIDVEWQSNGQQEPESKYRTTPPQLDEDGSYFLYSKLSVDKSRWQRGDTFICAVMHEALHNHKTQESLSHSPGK"
7,8.41,"canine IgGB (65) mAb with mutation Y436I (antibody, part only; not given: variable domains of unnamed mAb, not shown: another chain or arm of the molecule) constant: ASTTAPSVFPLAPSCGSTSGSTVALACLVSGYFPEPVTVSWNSGSLTSGVHTFPSVLQSSGLYSLSSMVTVPSSRWPSETFTCNVAHPASKTKVDKPVPKRENGRVPRPPDCPKCPAPEMLGGPSVFIFPPKPKDTLLIARTPEVTCVVVDLDPEDPEVQISWFVDGKQMQTAKTQPREEQFNGTYRVVSVLPIGHQDWLKGKQFTCKVNNKALPSPIERTISKARGQAHQPSVYVLPPSREELSKNTVSLTCLIKDFFPPDIDVEWQSNGQQEPESKYRTTPPQLDEDGSYFLYSKLSVDKSRWQRGDTFICAVMHEALHNHITQESLSHSPGK"
8,6.38,"canine IgGB (65) mAb with mutation T286I (antibody, part only; not given: Variable domains, not shown: another chain or arm of the molecule) constant: ASTTAPSVFPLAPSCGSTSGSTVALACLVSGYFPEPVTVSWNSGSLTSGVHTFPSVLQSSGLYSLSSMVTVPSSRWPSETFTCNVAHPASKTKVDKPVPKRENGRVPRPPDCPKCPAPEMLGGPSVFIFPPKPKDTLLIARTPEVTCVVVDLDPEDPEVQISWFVDGKQMQIAKTQPREEQFNGTYRVVSVLPIGHQDWLKGKQFTCKVNNKALPSPIERTISKARGQAHQPSVYVLPPSREELSKNTVSLTCLIKDFFPPDIDVEWQSNGQQEPESKYRTTPPQLDEDGSYFLYSKLSVDKSRWQRGDTFICAVMHEALHNHYTQESLSHSPGK"
9,8.84,"canine IgGB (65) mAb with mutation Y436C (antibody, part only; not given: Variable domains, not shown: another chain or arm of the molecule) constant: ASTTAPSVFPLAPSCGSTSGSTVALACLVSGYFPEPVTVSWNSGSLTSGVHTFPSVLQSSGLYSLSSMVTVPSSRWPSETFTCNVAHPASKTKVDKPVPKRENGRVPRPPDCPKCPAPEMLGGPSVFIFPPKPKDTLLIARTPEVTCVVVDLDPEDPEVQISWFVDGKQMQTAKTQPREEQFNGTYRVVSVLPIGHQDWLKGKQFTCKVNNKALPSPIERTISKARGQAHQPSVYVLPPSREELSKNTVSLTCLIKDFFPPDIDVEWQSNGQQEPESKYRTTPPQLDEDGSYFLYSKLSVDKSRWQRGDTFICAVMHEALHNHCTQESLSHSPGK"
10,12.9,"canine IgGB (65) mAb with mutation Y436D (antibody, part only; not given: Variable domains, not shown: another chain or arm of the molecule) constant: ASTTAPSVFPLAPSCGSTSGSTVALACLVSGYFPEPVTVSWNSGSLTSGVHTFPSVLQSSGLYSLSSMVTVPSSRWPSETFTCNVAHPASKTKVDKPVPKRENGRVPRPPDCPKCPAPEMLGGPSVFIFPPKPKDTLLIARTPEVTCVVVDLDPEDPEVQISWFVDGKQMQTAKTQPREEQFNGTYRVVSVLPIGHQDWLKGKQFTCKVNNKALPSPIERTISKARGQAHQPSVYVLPPSREELSKNTVSLTCLIKDFFPPDIDVEWQSNGQQEPESKYRTTPPQLDEDGSYFLYSKLSVDKSRWQRGDTFICAVMHEALHNHDTQESLSHSPGK"
11,4.26,"canine IgGB (65) mAb with mutation Y436L (antibody, part only; not given: variable domains of unnamed mAb, not shown: another chain or arm of the molecule) constant: ASTTAPSVFPLAPSCGSTSGSTVALACLVSGYFPEPVTVSWNSGSLTSGVHTFPSVLQSSGLYSLSSMVTVPSSRWPSETFTCNVAHPASKTKVDKPVPKRENGRVPRPPDCPKCPAPEMLGGPSVFIFPPKPKDTLLIARTPEVTCVVVDLDPEDPEVQISWFVDGKQMQTAKTQPREEQFNGTYRVVSVLPIGHQDWLKGKQFTCKVNNKALPSPIERTISKARGQAHQPSVYVLPPSREELSKNTVSLTCLIKDFFPPDIDVEWQSNGQQEPESKYRTTPPQLDEDGSYFLYSKLSVDKSRWQRGDTFICAVMHEALHNHLTQESLSHSPGK"
12,3.87,"canine IgGB (65) mAb with mutation A426W (antibody, part only; not given: variable domains of unnamed mAb, not shown: another chain or arm of the molecule) constant: ASTTAPSVFPLAPSCGSTSGSTVALACLVSGYFPEPVTVSWNSGSLTSGVHTFPSVLQSSGLYSLSSMVTVPSSRWPSETFTCNVAHPASKTKVDKPVPKRENGRVPRPPDCPKCPAPEMLGGPSVFIFPPKPKDTLLIARTPEVTCVVVDLDPEDPEVQISWFVDGKQMQTAKTQPREEQFNGTYRVVSVLPIGHQDWLKGKQFTCKVNNKALPSPIERTISKARGQAHQPSVYVLPPSREELSKNTVSLTCLIKDFFPPDIDVEWQSNGQQEPESKYRTTPPQLDEDGSYFLYSKLSVDKSRWQRGDTFICWVMHEALHNHYTQESLSHSPGK"
13,3.83,"canine IgGB (65) mAb with mutation Y436R (antibody, part only; not given: Variable domains, not shown: another chain or arm of the molecule) constant: ASTTAPSVFPLAPSCGSTSGSTVALACLVSGYFPEPVTVSWNSGSLTSGVHTFPSVLQSSGLYSLSSMVTVPSSRWPSETFTCNVAHPASKTKVDKPVPKRENGRVPRPPDCPKCPAPEMLGGPSVFIFPPKPKDTLLIARTPEVTCVVVDLDPEDPEVQISWFVDGKQMQTAKTQPREEQFNGTYRVVSVLPIGHQDWLKGKQFTCKVNNKALPSPIERTISKARGQAHQPSVYVLPPSREELSKNTVSLTCLIKDFFPPDIDVEWQSNGQQEPESKYRTTPPQLDEDGSYFLYSKLSVDKSRWQRGDTFICAVMHEALHNHRTQESLSHSPGK"
14,9.8,"canine IgGB (65) mAb with mutation Y436F (antibody, part only; not given: Variable domains, not shown: another chain or arm of the molecule) constant: ASTTAPSVFPLAPSCGSTSGSTVALACLVSGYFPEPVTVSWNSGSLTSGVHTFPSVLQSSGLYSLSSMVTVPSSRWPSETFTCNVAHPASKTKVDKPVPKRENGRVPRPPDCPKCPAPEMLGGPSVFIFPPKPKDTLLIARTPEVTCVVVDLDPEDPEVQISWFVDGKQMQTAKTQPREEQFNGTYRVVSVLPIGHQDWLKGKQFTCKVNNKALPSPIERTISKARGQAHQPSVYVLPPSREELSKNTVSLTCLIKDFFPPDIDVEWQSNGQQEPESKYRTTPPQLDEDGSYFLYSKLSVDKSRWQRGDTFICAVMHEALHNHFTQESLSHSPGK"
15,668,"canine IgGB (65) mAb with mutation Y436P (antibody, part only; not given: variable domains of unnamed mAb, not shown: another chain or arm of the molecule) constant: ASTTAPSVFPLAPSCGSTSGSTVALACLVSGYFPEPVTVSWNSGSLTSGVHTFPSVLQSSGLYSLSSMVTVPSSRWPSETFTCNVAHPASKTKVDKPVPKRENGRVPRPPDCPKCPAPEMLGGPSVFIFPPKPKDTLLIARTPEVTCVVVDLDPEDPEVQISWFVDGKQMQTAKTQPREEQFNGTYRVVSVLPIGHQDWLKGKQFTCKVNNKALPSPIERTISKARGQAHQPSVYVLPPSREELSKNTVSLTCLIKDFFPPDIDVEWQSNGQQEPESKYRTTPPQLDEDGSYFLYSKLSVDKSRWQRGDTFICAVMHEALHNHPTQESLSHSPGK"
16,5.28,"canine IgGB (65) mAb with mutation Y436E (antibody, part only; not given: Variable domains, not shown: another chain or arm of the molecule) constant: ASTTAPSVFPLAPSCGSTSGSTVALACLVSGYFPEPVTVSWNSGSLTSGVHTFPSVLQSSGLYSLSSMVTVPSSRWPSETFTCNVAHPASKTKVDKPVPKRENGRVPRPPDCPKCPAPEMLGGPSVFIFPPKPKDTLLIARTPEVTCVVVDLDPEDPEVQISWFVDGKQMQTAKTQPREEQFNGTYRVVSVLPIGHQDWLKGKQFTCKVNNKALPSPIERTISKARGQAHQPSVYVLPPSREELSKNTVSLTCLIKDFFPPDIDVEWQSNGQQEPESKYRTTPPQLDEDGSYFLYSKLSVDKSRWQRGDTFICAVMHEALHNHETQESLSHSPGK"
